From IntAct's records for PubMed 23035120

B1: Protein kinase C and casein kinase substrate in neurons protein 1 (Mus musculus), Q61644 (parent)
chain: MSGSYDEASEEITDSFWEVGNYKRTVKRIDDGHRLCNDLMSCVQERAKIEKAYAQQLTDWAKRWRQLIEKGPQYGSLERAWGAMMTEADKVSELHQEVKNSLLNEDLEKVKNWQKDAYHKQIMGGFKETKEAEDGFRKAQKPWAKKMKELEAAKKAYHLACKEERLAMTREMNSKTEQSVTPEQQKKLVDKVDKCRQDVQKTQEKYEKVLEDVGKTTPQYMEGMEQVFEQCQQFEEKRLVFLKEVLLDIKRHLNLAENSSYMHVYRELEQAIRGADAQEDLRWFRSTSGPGMPMNWPQFEEWNPDLPHTTAKKEKQPKKAEGATLSNATGAVESTSQAGDRGSVSSYDRGQTYATEWSDDESGNPFGGNEANGGANPFEDDAKGVRVRALYDYDGQEQDELSFKAGDELTKLGEEDEQGWCRGRLDSGQLGLYPANYVEAI

Variants of: B1
Settings: with Mapt

| effect of a mutation on the interaction | Variant |
| --- | --- |
| disrupting interaction | P434L |
